This passage reports stoichiometry N results from article PMC3423370.

Experiment [1] deals with Biomphalaria glabrata acetylcholine-binding protein (BgAChBP), native rosette protein from hemolymph (Biomphalaria glabrata). Description: cryo-EM structure; native rosette protein at 1.2 mg/ml vitrified on C-flat holey carbon grids; 9770 single particles, icosahedral symmetry, resolution ~6 Å (FSC0.5 5.9 Å).
The target is the same in experiment [2]. Description: non-reducing SDS-PAGE; chromatographically enriched native BgAChBP under non-reducing against reducing conditions; disulfide-linked subunit dimers.
In experiment [3] the target is Recombinant BgAChBP2 (Biomphalaria glabrata). Description: negative-stain electron microscopy; refolded recombinant protein, 20 mM Tris-HCl pH 8.0 with 50 mM imidazole; 2% uranyl acetate; for BgAChBP1 a 3D reconstruction (~20 Å) from ~3000 negatively stained particles.

“Biomphalaria glabrata acetylcholine-binding protein (BgAChBP), native rosette protein from hemolymph (complex)”: the stoichiometry N in experiment [1] was found to be 60; in experiment [2] it was 2.

As for Recombinant BgAChBP2 (natural protein), the stoichiometry N in experiment [3] is 5.
